Patent US20160340402A1 (ALMAC DISCOVERY, published 2016)

Target: the molecule itself
Experiment: SDS PAGE and native PAGE, non-reducing against reducing conditions (self-association)

B1: full length recombinant His-tagged FKBP-L protein (variant Thr181, Gly186), N-terminal poly-histidine tag (other)
chain: MRGSHHHHHHGMASMTGGQQMGRDLYDDDDKDRWGSMETPPVNTIGEKDTSQPQQEWEKNLRENLDSVIQIRQQPRDPPTETLELEVSPDPASQILEHTQGAEKLVAELEGDSHKSHGSTSQMPEALQASDLWYCPDGSFVKKIVIRGHGLDKPKLGSCCRVLALGFPFGSGPPEGWTELTMGVGPWREETWGELIEKCLESMCQGEEAELQLPGHTGPPVGLTLASFTQGRDSWELETSEKEALAREERARGTELFRAGNPEGAARCYGRALRLLLTLPPPGPPERTVLHANLAACQLLLGQPQLAAQSCDRVLEREPGHLKALYRRGVAQAALGNLEKATADLKKVLAIDPKNRAAQEELGKVVIQGKNQDAGLAQGLRKMFG
notes: also called recombinant FKBP-L; rFKBP-L
B1: binds.
